The supplement of paper PMC10126150
± gives the standard deviation of the averaged measurements.

Tested on: ATP
Assay: switch fluorescence ratio, 500 uM ATP over buffer (Cy3 cluster intensity, sum of 5 cycles each) (fold (ratio)); higher = stronger signal-on switching upon ATP binding; sequences stand for … in TCGTCGGCAGCGTCAGATGTGTATAAGAGACAGTTTTTTTTTTTTTTTTTTTTTTTTT…TC
Conditions: aptamer strand: ATP DNA aptamer (quencher-CACCTGGGGGAGTATTGCGGAGGAAGG + anchor), 100 nM annealed; ATP concentration: 500 uM
Outline: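 The quencher-labelled ATP aptamer, at 100 nM, was annealed to Cy3-labelled switching-strand clusters on a modified Illumina MiSeq flow-cell. The clusters were imaged in selection buffer, then after 15 min with 500 uM ATP at 22 °C, and this buffer/ATP cycle ran five times with NaOH stripping and re-annealing between runs. Per-cluster fluorescence ratios, summed target-cycle over summed buffer-cycle Cy3 intensity, were averaged per switch-domain sequence. Clusters outside 100-1000 RFU were excluded.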
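Further: ATP exposure 15 min at 22 °C before imaging.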

| Sequence | switch fluorescence ratio |
| --- | --- |
| TCGGGGCGTG | 1 ± 0.027 |
| AGTGGCAAGG | 0.9943 ± 0.0063 |
| GCTGTTTGTA | 0.999 ± 0.03 |
| GTTGGGCTTT | 0.98 ± 0.025 |
| AAAGGTCAT | 0.9933 ± 0.0018 |
| TATTCGGGGT | 0.99 ± 0.028 |
| TTCGAGTATT | 0.99 ± 0.019 |
| ATATCTAGTT | 0.989 ± 0.084 |
| TAAGTGGAAT | 0.999 ± 0.022 |
| GACGTTAATA | 1.41 ± 0.04 |
| TTTAAAATAG | 1.01 ± 0.019 |
| ATGCGACGCT | 1.091 ± 0.0038 |
| TGCCTTGCCA | 1 ± 0.012 |
| CGTATGCAAA | 1.06 ± 0.058 |
| CACTTTTTTT | 1.01 ± 0.063 |
| AATCATGTGC | 1 ± 0.04 |
| TTTGTAAAAT | 0.99 ± 0.021 |
| GAGAGGGGAT | 1.03 ± 0.036 |
| ACTTCCGGG | 1.33 ± 0.27 |
| TTTGAAATAC | 2.2 ± 0.025 |
| GGGAAAAGGT | 1.04 ± 0.021 |
| ATTGTAATTG | 0.993 ± 0.012 |
| CTGACGGATT | 1.2 ± 0.054 |

| Sequence | switch fluorescence ratio |
| --- | --- |
| TTTGTTCGGT | 1.01 ± 0.013 |
| TAGAATGTGG | 0.994 ± 0.042 |
| GGTGGGGACG | 0.974 ± 0.037 |
| GCTACCATAT | 1.07 ± 0.015 |
| TTTTTTTTC | 1.045 ± 0.0071 |
| GGGAACGTCG | 1.011 ± 0.01 |
| TTGAGGGAGA | 1.02 ± 0.058 |
| GTGGCCATGC | 1.01 ± 0.025 |
| GGGCAGGCTT | 0.98 ± 0.017 |
| TGTGGGATGT | 0.9704 ± 0.0039 |
| TTCGTCAACA | 1.03 ± 0.046 |
| GGGGGTTTAC | 1.01 ± 0.013 |
| CATGATATGG | 0.969 ± 0.02 |
| AGAGTCAGTG | 0.982 ± 0.022 |
| CATTTTTCTG | 0.963 ± 0.06 |
| GGGATAACGG | 0.962 ± 0.018 |
| AAATGACAGC | 1.06 ± 0.037 |
| AAATCTGTCA | 1.03 ± 0.02 |
| GCCAAAAGGG | 1.015 ± 0.008 |
| GCTTGGTCAT | 0.9714 ± 0.0035 |
| ATATATGAAA | 0.998 ± 0.024 |
| GAACGGCCGG | 1.004 ± 0.0092 |
| GGCGGCCGAT | 0.9707 ± 0.005 |

| Sequence | switch fluorescence ratio |
| --- | --- |
| TCGTCCCTGT | 1.074 ± 0.003 |
| GATGTTGGAA | 0.997 ± 0.034 |
| TTATCCACGA | 1.03 ± 0.033 |
| TCATGTTGCT | 1.01 ± 0.025 |
| TTGAAGGGTG | 1.05 ± 0.11 |
| GGTGGTCGGG | 0.982 ± 0.0053 |
| ATTACAAAAA | 1.01 ± 0.014 |
| TGGCGGATAT | 1.06 ± 0.1 |
| TTGTAGTTG | 0.9952 ± 0.0062 |
| CCGGGAACGC | 1.29 ± 0.024 |
| TTACCAGAGT | 1.02 ± 0.011 |
| ACTTGACCCG | 1.08 ± 0.064 |
| GGATTAGGGA | 1.01 ± 0.03 |
| ATGGGTTTCT | 0.989 ± 0.026 |
| TAATACTGAA | 1.01 ± 0.029 |
| ATTACCCGGA | 1 ± 0.028 |
| GGACTTAGAT | 1.02 ± 0.039 |
| ACGGGTGGGT | 1.08 ± 0.15 |
| AGAATTAGTG | 0.953 ± 0.1 |
| TGATCCCGGG | 0.93018 ± 0.00028 |
| CGTTTGGTGT | 1.0115 ± 1.5e-05 |
| TTGAGATCCT | 1.027 ± 0.0084 |
| TTACATCTGG | 0.9842 ± 0.007 |

| Sequence | switch fluorescence ratio |
| --- | --- |
| GACGGGGACC | 1.06 ± 0.063 |
| CAAGCTAGCG | 1.04 ± 0.016 |
| TCTGAGTTCA | 0.987 ± 0.019 |
| GAGGATTTTG | 1.003 ± 0.0089 |
| TTAGCAAAAA | 1.1 ± 0.075 |
| GGGTGAAGGT | 0.9866 ± 0.0047 |
| TTCGTTGGTG | 0.969 ± 0.035 |
| TTTGGCTGTT | 0.998 ± 0.029 |
| TGGCCGTGGC | 1.03 ± 0.05 |
| TGGTTTTTAA | 0.977 ± 0.052 |
| ATGGAGACGG | 0.979 ± 0.019 |
| AGTAGAATTG | 0.966 ± 0.054 |
| TAGGCGTGTC | 0.992 ± 0.016 |
| GGGATAGCCG | 1 ± 0.059 |
| CGTCTGATAG | 0.99 ± 0.033 |
| TTTCACACTC | 1.02 ± 0.03 |
| TTTGAAAGAA | 0.9779 ± 0.0054 |
| TGCATTCTGA | 1.02 ± 0.025 |
| TGTTCCAATA | 1.03 ± 0.024 |
| GTTGTTATAT | 1.02 ± 0.037 |
| TCCTAGGCGT | 1.06 ± 0.12 |
| GTTGTAGCGG | 1 ± 0.029 |
| TTTGACTAGG | 1.01 ± 0.038 |

| Sequence | switch fluorescence ratio |
| --- | --- |
| TGTAGACTGA | 1.01 ± 0.011 |
| ATAAGCCCCG | 0.993 ± 0.049 |
| TTTGGTGACG | 1.09 ± 0.029 |
| TGTTGAAATT | 1.03 ± 0.077 |
| AGTGGGTTAG | 1.016 ± 0.0012 |
| TGGTAGAGAT | 1.01 ± 0.051 |
| CTCTACGCCG | 0.9875 ± 0.0053 |
| CCGGGTGTGG | 1.03 ± 0.028 |
| CAAGTACGGA | 1.1 ± 0.17 |
| TACTACGTGC | 1.28 ± 0.019 |
| CAGGCGGCG | 0.991 ± 0.017 |
| TCAGGTAATT | 1.03 ± 0.031 |
| CTTATAGGTC | 1.01 ± 0.017 |
| ATCTAGGGTT | 0.995 ± 0.022 |
| TTTAGTGCTT | 0.997 ± 0.03 |
| TATCCACATA | 1.1 ± 0.013 |
| CAGGGAGAGG | 1 ± 0.011 |
| ACAGCTGGGT | 0.98 ± 0.015 |
| CGTCATCCAT | 0.9881 ± 0.0021 |
| CAAGATGGGG | 0.95 ± 0.023 |
| ATCGAAGGGA | 0.985 ± 0.041 |
| TCAGTCAACC | 1.1 ± 0.017 |
| TCGGGGAAGT | 1.04 ± 0.042 |

| Sequence | switch fluorescence ratio |
| --- | --- |
| GGGTTTACGA | 1.01 ± 0.074 |
| TACAAGGCTT | 0.993 ± 0.027 |
| AGTAGCGATT | 1.06 ± 0.031 |
| ACGGTTGTGC | 1.01 ± 0.04 |
| TTAGCTTGCT | 1.019 ± 0.0035 |
| ACAGGGGTAT | 1.02 ± 0.066 |
| ACGGACGGGG | 1.11 ± 0.036 |
| GCGAAGGGGG | 1.03 ± 0.067 |
| TTTATTATGG | 0.989 ± 0.032 |
| CGGGGTCCTG | 1.03 ± 0.054 |
| CGTTTACCTG | 0.983 ± 0.0042 |
| GGCACAGATG | 1.02 ± 0.015 |
| GTGAAAGGGC | 1.01 ± 0.034 |
| GGGCCACCAG | 1.01 ± 0.032 |
| GTGTACTTAC | 1.2 ± 0.022 |
| GCTTTCCAGA | 0.9949 ± 0.0059 |
| AAAATGCGGA | 0.9951 ± 0.003 |
| TTTCTAACGT | 1.001 ± 0.0026 |
| GAGGACGGTG | 1.03 ± 0.015 |
| ATTTGCAATT | 1.03 ± 0.034 |
| TTGGCAAAGG | 1.1 ± 0.19 |
| AGTGGGAAAT | 0.994 ± 0.015 |
| CAGTGGCGTA | 1.01 ± 0.011 |

| Sequence | switch fluorescence ratio |
| --- | --- |
| ATCCGAGGAG | 1.05 ± 0.012 |
| AAAAGGAGGG | 0.999 ± 0.013 |
| TTCGTAGTTG | 0.992 ± 0.054 |
| TTACTTCTGG | 0.9796 ± 0.0017 |
| CGGCTCGTTT | 1.049 ± 0.0079 |
| TTTGCGGTCA | 1.021 ± 0.0091 |
| GGGTGACGGT | 1.01 ± 0.04 |
| TTTCACGGTA | 1.15 ± 0.11 |
| AAAACAGCCG | 0.957 ± 0.1 |
| AGGGAATGTG | 0.987 ± 0.034 |
| GGGGGGTGGG | 0.996 ± 0.039 |
| TTGGGATGTT | 0.9904 ± 0.009 |
| TGGGGGGTGT | 1.02 ± 0.069 |
| TGTCCTAAAA | 1.05 ± 0.04 |
| CTTTTGAGGA | 0.9952 ± 0.0042 |
| TTAATATGGA | 0.999 ± 0.012 |
| AGTACCGGGT | 1.04 ± 0.049 |
| AGAGGGGGCC | 0.98 ± 0.18 |
| TCTTGGAACG | 0.998 ± 0.015 |
